Experimental data reported in patent US20120121589A1, “MODIFIED EGFR ECTODOMAIN” (WAYNE STATE UNIVERSITY, priority 2009, published 2012).
Entries after “also recorded” stand apart in the source; their conditions may differ. *: point of attachment. Cbz = O=C(OCc1ccccc1)*; CH2F = FC*

Columns and labels:
MDA-MB-468 cells [1] = test: Apoptosis in MDA-MB-468 cells (DNA fragmentation ELISA, acridine orange staining); settings: MDA-MB-468 cells preincubated with inhibitor for 3 hours, then EBIP and dasatinib; FIG. 15B
MDA-MB-468 xenografts = MDA-MB-468 xenografts in SCID mice, tumor growth; type: in vivo
Description: Severe combined immunodeficient mice xenografts of MDA-MB-468 cells included the following aspects. […] When tumor burden reached 1,500 to 2,000 mg, mice were euthanized. The tumors were removed, cut into 20 to 30 mg fragment, and subsequently transplanted (s.c.) bilaterally into similarly conditioned 28 animals. […] Treatment was started on day 7 and continued until day 23. Animals and tumor burden were followed for up to 55 days. Tumor measurements were carried out at multiple time points during the experimental period. Mice were weighed and monitored for signs of toxicity. Tumor weights in SCID mice were estimated as tumor weight (mg)=(A×B2)/2, where A and B are the tumor length and width (in mm), respectively.

MDA-MB-468 cells [2] = test: MTT growth assay and CalcuSyn synergy analysis in MDA-MB-468 cells; type: cell-based, human; settings: for Dasatinib (Fa): MDA-MB-468
Description: (§1) Growth inhibition assay included the following aspects. […] At the end of the treatment period, cells were incubated with 10% of 5 mg/mL stock of MTT and incubated for 3 hours at 37° C.
(§2) Analysis of interaction between two drugs included the following aspects. Combination index (CI) method adapted for in vitro anticancer drug testing was used to determine the nature of interaction between the two agents as described by Majumdar APN, Banerjee S, Nautiyal J, et al. Curcumin synergizes with resveratrol to inhibit colon cancer. […] Based on CI values, the extent of synergism/antagonism may be determined.

MDA-MB-231 cells = test: MTT growth assay and CalcuSyn synergy analysis in MDA-MB-231 cells; type: cell-based, human
Description: as §1, §2

[3] = tested on: Erks (extracellular signal-regulated kinases); test: TGF-α-induced phosphorylation of ERKs in HCT-116 cells (Western blot); type: cell-based; settings: prior exposure, FIG. 6
HER-3 = target: T1, HER-3 (Homo sapiens, UniProt P21860); test: Heregulin-induced phosphorylation of HER-3 in MDA-MB-453 cells; type: cell-based; settings: preincubation, then heregulin, FIG. 8, FIG. 19
T1 construct: endogenous in cells; host or cells: MDA-MB-453
Source text: (§3) The breast cancer MDA-MB-453 cells contain high levels of HER-2 and HER-3. […] Binding of heregulin HER-3 leads to activation and subsequent heterodimerization of HER-3 with one or more EGFR family members.
(§4) Western blot analysis included the following aspects.

[4] = tested on: colon cancer HCT-116 cells; test: MTT growth assay in colon cancer HCT-116 cells; type: cell-based
Description: as §1

HER-2 = target: T2, HER-2 (Homo sapiens, UniProt P04626); test: Heregulin-induced phosphorylation of HER-2 in MDA-MB-453 cells; type: cell-based; settings: preincubation, then heregulin, FIG. 8, FIG. 19
T2 construct: endogenous in cells; host or cells: MDA-MB-453
Source text: as §3, §4

[5] = tested on: breast cancer SKBR-3 cells; test: MTT growth assay in breast cancer SKBR-3 cells; type: cell-based, human; settings: increasing concentrations, 48 h; FIG. 7
Description: as §1

[6] = tested on: breast cancer SKBR cell xenografts; test: SKBR cell xenografts in SCID mice; type: in vivo; settings: FIG. 9
Source text: SKBR cells express high levels of HER-2 but contain little no HER-1/EGFR or HER-3.

EGFR = target: T3, EGFR (Homo sapiens, UniProt P00533); test: TGF-α-induced tyrosine phosphorylation of EGFR (Western blot); type: cell-based; settings: preincubation 10 μg/ml for 30 min; 10 nM TGF-α for 10 min; FIG. 4
T3 construct: endogenous in cells

c-Src = test: TGF-α-induced phosphorylation of Src in HCT-116 cells (Western blot); type: cell-based; settings: prior exposure, FIG. 5

T1 sequence (P21860 20-1342): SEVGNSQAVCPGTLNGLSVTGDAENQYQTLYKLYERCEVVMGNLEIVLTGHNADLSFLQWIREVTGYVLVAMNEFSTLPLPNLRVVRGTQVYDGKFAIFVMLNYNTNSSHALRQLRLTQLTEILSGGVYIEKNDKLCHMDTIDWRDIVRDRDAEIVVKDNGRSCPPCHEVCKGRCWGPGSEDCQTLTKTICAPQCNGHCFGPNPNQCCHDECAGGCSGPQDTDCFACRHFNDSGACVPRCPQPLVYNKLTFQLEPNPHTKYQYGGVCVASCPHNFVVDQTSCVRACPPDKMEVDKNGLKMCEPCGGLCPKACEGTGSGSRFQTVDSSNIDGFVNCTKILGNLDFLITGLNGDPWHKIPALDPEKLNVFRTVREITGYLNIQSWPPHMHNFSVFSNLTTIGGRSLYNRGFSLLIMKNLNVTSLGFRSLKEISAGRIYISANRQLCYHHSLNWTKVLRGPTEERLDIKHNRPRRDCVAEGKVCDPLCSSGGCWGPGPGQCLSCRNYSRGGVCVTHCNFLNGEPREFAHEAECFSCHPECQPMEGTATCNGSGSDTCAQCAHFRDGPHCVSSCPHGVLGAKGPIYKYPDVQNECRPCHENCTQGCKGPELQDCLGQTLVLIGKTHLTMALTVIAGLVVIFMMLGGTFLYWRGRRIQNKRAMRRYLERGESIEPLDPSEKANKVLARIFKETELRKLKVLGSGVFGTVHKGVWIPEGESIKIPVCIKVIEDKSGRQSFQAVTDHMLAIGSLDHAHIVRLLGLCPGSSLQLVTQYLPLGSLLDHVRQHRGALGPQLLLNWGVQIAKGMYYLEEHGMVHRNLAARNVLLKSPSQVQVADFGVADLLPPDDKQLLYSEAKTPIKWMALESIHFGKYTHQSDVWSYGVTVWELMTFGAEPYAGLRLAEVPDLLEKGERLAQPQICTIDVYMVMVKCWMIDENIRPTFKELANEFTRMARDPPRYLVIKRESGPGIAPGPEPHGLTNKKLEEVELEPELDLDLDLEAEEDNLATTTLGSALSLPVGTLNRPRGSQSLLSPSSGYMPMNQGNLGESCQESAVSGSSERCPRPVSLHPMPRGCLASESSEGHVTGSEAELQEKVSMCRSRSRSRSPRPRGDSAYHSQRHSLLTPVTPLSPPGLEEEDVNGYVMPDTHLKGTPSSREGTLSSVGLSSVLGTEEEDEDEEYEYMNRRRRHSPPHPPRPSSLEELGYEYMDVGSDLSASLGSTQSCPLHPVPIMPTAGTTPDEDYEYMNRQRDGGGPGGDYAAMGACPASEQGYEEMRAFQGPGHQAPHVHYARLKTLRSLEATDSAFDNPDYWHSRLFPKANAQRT

Cbz-IETD-CH2F was tested. Which “effect of caspase inhibitor on apoptosis induction by the combined therapy” value (MDA-MB-468 cells [1]) did it give?
The value was “blocked apoptosis induction by the combined therapy”.

How did the “effect of caspase inhibitor on apoptosis induction by the combined therapy” value (MDA-MB-468 cells [1]) turn out when Cbz-LEHD-CH2F was run?
Its value is “blocked apoptosis induction by the combined therapy”.

Which “tumor growth, significance of inhibition” value (MDA-MB-468 xenografts; P<0.05, FIG. 16, Table 3) does the source give for `Cc1nc(Nc2ncc(C(=O)Nc3c(C)cccc3Cl)s2)cc(N2CCN(CCO)CC2)n1` [Dasatinib, dasatinib] here?
Its value is “no significant inhibition”.

What about the “tumor weight at the end of 55 days, Mean ± SD” value (MDA-MB-468 xenografts; day-55, dasatinib 10 mg/kg gavage and/or EBIP 25 μg/mouse s.c., every other day, day 7 to 23) of the same molecule?
The value was 584 ± 189 mg.

What about the “inhibition (suppression) of tumor growth” value (MDA-MB-468 xenografts; vs vehicle-treated controls, dasatinib 10 mg/kg gavage and/or EBIP 25 μg/mouse s.c., every other day) of the same molecule?
Its value is “about 27%”.

And the “Dasatinib (Fa)” value (MDA-MB-468 cells [2]; Dasatinib 0.50 μM)?
Its value is 0.216.

And the “Dasatinib (Fa)” value (MDA-MB-468 cells [2]; Dasatinib 1.0 μM)?
The value was 0.286.

What about the “Dasatinib (Fa)” value (MDA-MB-468 cells [2]; Dasatinib 2.0 μM) of the same molecule?
Its value is 0.315.

What about the “Dasatinib (Fa)” value (MDA-MB-468 cells [2]; Dasatinib 4.0 μM) of the same molecule?
The value was 0.382.

What about the “Dasatinib (Fa)” value (MDA-MB-231 cells; Dasatinib 0.50 μM) of the same molecule?
The value was 0.354.

What about the “Dasatinib (Fa)” value (MDA-MB-231 cells; Dasatinib 1.0 μM) of the same molecule?
Its value is 0.322.

What about the “Dasatinib (Fa)” value (MDA-MB-231 cells; Dasatinib 2.0 μM) of the same molecule?
Its value is 0.353.

What about the “Dasatinib (Fa)” value (MDA-MB-231 cells; Dasatinib 4.0 μM) of the same molecule?
Its value is 0.392.

B1: ERRP: rat ERRP that includes amino acids 1-478 and includes the U region (SEQ ID NO: 16); pan-erbB inhibitor (protein, listed as Rattus norvegicus)
chain: MRPSGTARTTLLVLLTALCAAGGALEEKKVCQGTSNRLTQLGTFEDHFLSLQRMYNNCEVVLGNLEITYVQRNYDLSFLKTIQEVAGYFLIALNTVERIPSEDLQIIRGNALYENTYALAILSNYGTNRTGLRELPMRNLQEILIGAVRFSNNPILCNMDTIQWRDIVQNVFMSNMSMDLQSHPSSCPKCDPSCPNGSCWGGGEENCQKLTKIICAQQCSHRCRGRSPSDCCHNQCAAGCTGPQKSDCLVCQKFQDEATCKDTCPPLMLYNPTTYQMDVNPEGKYSFGATCVKNCPRNYVVTDHGSCVRACGPDYYEVEEDGIRKCKKCDGPCRKVCNGIGIGEFKDTLSINATNIKHFKYCTAISGDLHILPVAFKGDSFTRTPPLDPRELEILKTVKEITGSLLIQAWPENWTDLHAFENLEIIRGRTKQHGQFSLAVVGLNITSLPWQVPSLSWQAVTRPLHPLAQNRVSWDTGP
With B1 as the molecule, how does the “attenuation of TGF-α-induced phosphorylation of Erks” value [3] read?
Its value is “greatly attenuated”.

What about the “inhibition of heregulin-induced phosphorylation/activation of HER-3” value (HER-3) of the same molecule?
The value was “able to inhibit; also recorded: about as equally effective as EBIP”.

And the inhibition of growth ([4]; dose of 20 μg/mL, vs corresponding controls, FIG. 18)?
The inhibition of growth was 70%.

What about the “inhibition of heregulin-induced phosphorylation/activation of HER-2” value (HER-2) of the same molecule?
The value was “able to inhibit; also recorded: about as equally effective as EBIP”.

And the “inhibition of growth of MDA-MB-468 cells” value (MDA-MB-468 cells [2]; immunoaffinity-purified protein, FIG. 12D)?
Its value is “equally effective”.

What about the “inhibition of growth of SKBR-3 cells” value [5] of the same molecule?
The value was “markedly inhibit the growth in a dose-dependent manner”.

And the “tumor growth of SKBR xenografts” value ([6]; SCID mice, vs vehicle)?
The value was “noticeably decreased”.

And the “inhibition of tumor growth” value ([6]; intratumoral 50 μg once a day, day 13 to 26, end of 40 day period, vs controls)?
Its value is “over 50%”.

What about the “attenuation of TGF-α-induced tyrosine phosphorylation of EGFR (amino acid 845)” value (EGFR) of the same molecule?
Its value is “greatly abrogates this stimulation”.

And the “attenuation of TGF-α-induced phosphorylation of Tyr416 of c-Src” value (c-Src)?
Its value is “abrogated”.

B2: rEGFR-447: rat ERRP that includes amino acids 1-447 but lacks the U region (SEQ ID NO: 15) (protein, listed as Rattus norvegicus)
chain: MRPSGTARTTLLVLLTALCAAGGALEEKKVCQGTSNRLTQLGTFEDHFLSLQRMYNNCEVVLGNLEITYVQRNYDLSFLKTIQEVAGYFLIALNTVERIPSEDLQIIRGNALYENTYALAILSNYGTNRTGLRELPMRNLQEILIGAVRFSNNPILCNMDTIQWRDIVQNVFMSNMSMDLQSHPSSCPKCDPSCPNGSCWGGGEENCQKLTKIICAQQCSHRCRGRSPSDCCHNQCAAGCTGPQKSDCLVCQKFQDEATCKDTCPPLMLYNPTTYQMDVNPEGKYSFGATCVKNCPRNYVVTDHGSCVRACGPDYYEVEEDGIRKCKKCDGPCRKVCNGIGIGEFKDTLSINATNIKHFKYCTAISGDLHILPVAFKGDSFTRTPPLDPRELEILKTVKEITGSLLIQAWPENWTDLHAFENLEIIRGRTKQHGQFSLAVVGLNITS
B2 was tested. Which “attenuation of TGF-α-induced phosphorylation of Erks” value [3] did it give?
Its value is “not”.

What about the “inhibition of heregulin-induced phosphorylation/activation of HER-3” value (HER-3) of the same molecule?
The value was “neither rEGFR-447 nor hEGFR-501 is effective; also recorded: neither rEGFR-447 nor hEGFR-501 re effective”.

What about the “inhibition of growth (MTT)” value ([4]; increasing doses, FIG. 3) of the same molecule?
Its value is “only marginally effective”.

And the “inhibition of heregulin-induced phosphorylation/activation of HER-2” value (HER-2)?
Its value is “neither rEGFR-447 nor hEGFR-501 is effective; also recorded: neither rEGFR-447 nor hEGFR-501 re effective”.

And the “inhibition of growth of SKBR-3 cells” value [5]?
Its value is “neither rEGFR-447 nor hEGFR-501 caused any apparent change in the growth”.

What about the “attenuation of TGF-α-induced tyrosine phosphorylation of EGFR (amino acid 845)” value (EGFR) of the same molecule?
The value was “do not attenuate”.

And the “attenuation of TGF-α-induced phosphorylation of Tyr416 of c-Src” value (c-Src)?
Its value is “less attenuation”.
